These results are taken from patent US20250171562A1 (ALK ABELL, published 2025).

The chains are these.
B1: CIgG4F5A1(G4S)1 (Fc fusion)
chain 1: GPPCPPCPAPEFLGGPSVFLFPPKPKDTLMISRTPEVTCVVVDVSQEDPEVQFNWYVDGVEVHNAKTKPREEQFNSTYRVVSVLTVLHQDWLNGKEYKCKVSNKGLPSSIEKTISKAKGQPREPQVYTLPPCQEEMTKNQVSLWCLVKGFYPSDIAVEWESNGQPENNYKTTPPVLDSDGSFFLYSRLTVDKSRWQEGNVFSCSVMHEALHNHYTQKSLSLSLGKGGGGSDVQLQESGGGLVQPGGSLRLSCAASGSIFSIDIMGWYRQAPGKQRELVATMPEGNYINYADSVKGRLTLSRDKGKNTVYLQLNSLKPEDTAVYYCYGFGVREGRGNVYWGQGTQVTVS
chain 2: GPPCPPCPAPEFLGGPSVFLFPPKPKDTLMISRTPEVTCVVVDVSQEDPEVQFNWYVDGVEVHNAKTKPREEQFNSTYRVVSVLTVLHQDWLNGKEYKCKVSNKGLPSSIEKTISKAKGQPREPQVCTLPPSQEEMTKNQVSLSCAVKGFYPSDIAVEWESNGQPENNYKTTPPVLDSDGSFFLVSRLTVDKSRWQEGNVFSCSVMHEALHNHYTQKSLSLSLGKGGGGSEVQLLESGGGLVQPGGSLRLSCAASGFTFGNYDMAWVRQAPGKRPEWVSSIDTGGDITHYADSVKGRFTISRDNAKNTLYLQMNSLRPEDTAVYWCATDEEYALGPNEFDYYGQGTLVTVSS
B2: CIgG4F6A1(G4S)1 (Fc fusion)
chain 1: GPPCPPCPAPEFLGGPSVFLFPPKPKDTLMISRTPEVTCVVVDVSQEDPEVQFNWYVDGVEVHNAKTKPREEQFNSTYRVVSVLTVLHQDWLNGKEYKCKVSNKGLPSSIEKTISKAKGQPREPQVYTLPPCQEEMTKNQVSLWCLVKGFYPSDIAVEWESNGQPENNYKTTPPVLDSDGSFFLYSRLTVDKSRWQEGNVFSCSVMHEALHNHYTQKSLSLSLGKGGGGSDVQLQESGGGLVQAGGSLRLSCAASGLTFGSYDMGWYRQAPGKQRELVGRIRNDGITYYADSVKGRFTMSRDNAKNTVYLQMNSLKPEDTAVYYCAADGTGLGHYDYWGQGTQVTVS
chain 2: GPPCPPCPAPEFLGGPSVFLFPPKPKDTLMISRTPEVTCVVVDVSQEDPEVQFNWYVDGVEVHNAKTKPREEQFNSTYRVVSVLTVLHQDWLNGKEYKCKVSNKGLPSSIEKTISKAKGQPREPQVCTLPPSQEEMTKNQVSLSCAVKGFYPSDIAVEWESNGQPENNYKTTPPVLDSDGSFFLVSRLTVDKSRWQEGNVFSCSVMHEALHNHYTQKSLSLSLGKGGGGSEVQLLESGGGLVQPGGSLRLSCAASGFTFGNYDMAWVRQAPGKRPEWVSSIDTGGDITHYADSVKGRFTISRDNAKNTLYLQMNSLRPEDTAVYWCATDEEYALGPNEFDYYGQGTLVTVSS
B3: CIgG4F4A1(G4S)3 (Fc fusion)
chain 1: GPPCPPCPAPEFLGGPSVFLFPPKPKDTLMISRTPEVTCVVVDVSQEDPEVQFNWYVDGVEVHNAKTKPREEQFNSTYRVVSVLTVLHQDWLNGKEYKCKVSNKGLPSSIEKTISKAKGQPREPQVYTLPPCQEEMTKNQVSLWCLVKGFYPSDIAVEWESNGQPENNYKTTPPVLDSDGSFFLYSRLTVDKSRWQEGNVFSCSVMHEALHNHYTQKSLSLSLGKGGGGSGGGGSGGGGSDVQLQESGGGLVQAGGSLRLSCAVSGLSFSSMGWFRQPPGKEREFVAAISLYSGSTYYADSVKGRFTISSDNAKSTVYLQMNSLKPEDAAVYFCAADRQRTWSTFYASRQATYNYWGQGTQVTVTS
chain 2: GPPCPPCPAPEFLGGPSVFLFPPKPKDTLMISRTPEVTCVVVDVSQEDPEVQFNWYVDGVEVHNAKTKPREEQFNSTYRVVSVLTVLHQDWLNGKEYKCKVSNKGLPSSIEKTISKAKGQPREPQVCTLPPSQEEMTKNQVSLSCAVKGFYPSDIAVEWESNGQPENNYKTTPPVLDSDGSFFLVSRLTVDKSRWQEGNVFSCSVMHEALHNHYTQKSLSLSLGKGGGGSGGGGSGGGGSEVQLLESGGGLVQPGGSLRLSCAASGFTFGNYDMAWVRQAPGKRPEWVSSIDTGGDITHYADSVKGRFTISRDNAKNTLYLQMNSLRPEDTAVYWCATDEEYALGPNEFDYYGQGTLVTVSS
B4: CIgG4F5A1(G4S)3 (Fc fusion)
chain 1: GPPCPPCPAPEFLGGPSVFLFPPKPKDTLMISRTPEVTCVVVDVSQEDPEVQFNWYVDGVEVHNAKTKPREEQFNSTYRVVSVLTVLHQDWLNGKEYKCKVSNKGLPSSIEKTISKAKGQPREPQVYTLPPCQEEMTKNQVSLWCLVKGFYPSDIAVEWESNGQPENNYKTTPPVLDSDGSFFLYSRLTVDKSRWQEGNVFSCSVMHEALHNHYTQKSLSLSLGKGGGGSGGGGSGGGGSDVQLQESGGGLVQPGGSLRLSCAASGSIFSIDIMGWYRQAPGKQRELVATMPEGNYINYADSVKGRLTLSRDKGKNTVYLQLNSLKPEDTAVYYCYGFGVREGRGNVYWGQGTQVTVS
chain 2: GPPCPPCPAPEFLGGPSVFLFPPKPKDTLMISRTPEVTCVVVDVSQEDPEVQFNWYVDGVEVHNAKTKPREEQFNSTYRVVSVLTVLHQDWLNGKEYKCKVSNKGLPSSIEKTISKAKGQPREPQVCTLPPSQEEMTKNQVSLSCAVKGFYPSDIAVEWESNGQPENNYKTTPPVLDSDGSFFLVSRLTVDKSRWQEGNVFSCSVMHEALHNHYTQKSLSLSLGKGGGGSGGGGSGGGGSEVQLLESGGGLVQPGGSLRLSCAASGFTFGNYDMAWVRQAPGKRPEWVSSIDTGGDITHYADSVKGRFTISRDNAKNTLYLQMNSLRPEDTAVYWCATDEEYALGPNEFDYYGQGTLVTVSS
B5: CIgG4F5A1(RS) (Fc fusion)
chain 1: GPPCPPCPAPEFLGGPSVFLFPPKPKDTLMISRTPEVTCVVVDVSQEDPEVQFNWYVDGVEVHNAKTKPREEQFNSTYRVVSVLTVLHQDWLNGKEYKCKVSNKGLPSSIEKTISKAKGQPREPQVYTLPPCQEEMTKNQVSLWCLVKGFYPSDIAVEWESNGQPENNYKTTPPVLDSDGSFFLYSRLTVDKSRWQEGNVFSCSVMHEALHNHYTQKSLSLSLGKRSDVQLQESGGGLVQPGGSLRLSCAASGSIFSIDIMGWYRQAPGKQRELVATMPEGNYINYADSVKGRLTLSRDKGKNTVYLQLNSLKPEDTAVYYCYGFGVREGRGNVYWGQGTQVTVS
chain 2: GPPCPPCPAPEFLGGPSVFLFPPKPKDTLMISRTPEVTCVVVDVSQEDPEVQFNWYVDGVEVHNAKTKPREEQFNSTYRVVSVLTVLHQDWLNGKEYKCKVSNKGLPSSIEKTISKAKGQPREPQVCTLPPSQEEMTKNQVSLSCAVKGFYPSDIAVEWESNGQPENNYKTTPPVLDSDGSFFLVSRLTVDKSRWQEGNVFSCSVMHEALHNHYTQKSLSLSLGKRSEVQLLESGGGLVQPGGSLRLSCAASGFTFGNYDMAWVRQAPGKRPEWVSSIDTGGDITHYADSVKGRFTISRDNAKNTLYLQMNSLRPEDTAVYWCATDEEYALGPNEFDYYGQGTLVTVSS
B6: CIgG4F6A1(RS) (Fc fusion)
chain 1: GPPCPPCPAPEFLGGPSVFLFPPKPKDTLMISRTPEVTCVVVDVSQEDPEVQFNWYVDGVEVHNAKTKPREEQFNSTYRVVSVLTVLHQDWLNGKEYKCKVSNKGLPSSIEKTISKAKGQPREPQVYTLPPCQEEMTKNQVSLWCLVKGFYPSDIAVEWESNGQPENNYKTTPPVLDSDGSFFLYSRLTVDKSRWQEGNVFSCSVMHEALHNHYTQKSLSLSLGKRSDVQLQESGGGLVQAGGSLRLSCAASGLTFGSYDMGWYRQAPGKQRELVGRIRNDGITYYADSVKGRFTMSRDNAKNTVYLQMNSLKPEDTAVYYCAADGTGLGHYDYWGQGTQVTVS
chain 2: GPPCPPCPAPEFLGGPSVFLFPPKPKDTLMISRTPEVTCVVVDVSQEDPEVQFNWYVDGVEVHNAKTKPREEQFNSTYRVVSVLTVLHQDWLNGKEYKCKVSNKGLPSSIEKTISKAKGQPREPQVCTLPPSQEEMTKNQVSLSCAVKGFYPSDIAVEWESNGQPENNYKTTPPVLDSDGSFFLVSRLTVDKSRWQEGNVFSCSVMHEALHNHYTQKSLSLSLGKRSEVQLLESGGGLVQPGGSLRLSCAASGFTFGNYDMAWVRQAPGKRPEWVSSIDTGGDITHYADSVKGRFTISRDNAKNTLYLQMNSLRPEDTAVYWCATDEEYALGPNEFDYYGQGTLVTVSS
B7: CIgG4F4A1(G4S)2 (Fc fusion)
chain 1: GPPCPPCPAPEFLGGPSVFLFPPKPKDTLMISRTPEVTCVVVDVSQEDPEVQFNWYVDGVEVHNAKTKPREEQFNSTYRVVSVLTVLHQDWLNGKEYKCKVSNKGLPSSIEKTISKAKGQPREPQVYTLPPCQEEMTKNQVSLWCLVKGFYPSDIAVEWESNGQPENNYKTTPPVLDSDGSFFLYSRLTVDKSRWQEGNVFSCSVMHEALHNHYTQKSLSLSLGKGGGGSGGGGSDVQLQESGGGLVQAGGSLRLSCAVSGLSFSSMGWFRQPPGKEREFVAAISLYSGSTYYADSVKGRFTISSDNAKSTVYLQMNSLKPEDAAVYFCAADRQRTWSTFYASRQATYNYWGQGTQVTVTS
chain 2: GPPCPPCPAPEFLGGPSVFLFPPKPKDTLMISRTPEVTCVVVDVSQEDPEVQFNWYVDGVEVHNAKTKPREEQFNSTYRVVSVLTVLHQDWLNGKEYKCKVSNKGLPSSIEKTISKAKGQPREPQVCTLPPSQEEMTKNQVSLSCAVKGFYPSDIAVEWESNGQPENNYKTTPPVLDSDGSFFLVSRLTVDKSRWQEGNVFSCSVMHEALHNHYTQKSLSLSLGKGGGGSGGGGSEVQLLESGGGLVQPGGSLRLSCAASGFTFGNYDMAWVRQAPGKRPEWVSSIDTGGDITHYADSVKGRFTISRDNAKNTLYLQMNSLRPEDTAVYWCATDEEYALGPNEFDYYGQGTLVTVSS
B8: CIgG4F5A1(G4S)2 (Fc fusion)
chain 1: GPPCPPCPAPEFLGGPSVFLFPPKPKDTLMISRTPEVTCVVVDVSQEDPEVQFNWYVDGVEVHNAKTKPREEQFNSTYRVVSVLTVLHQDWLNGKEYKCKVSNKGLPSSIEKTISKAKGQPREPQVYTLPPCQEEMTKNQVSLWCLVKGFYPSDIAVEWESNGQPENNYKTTPPVLDSDGSFFLYSRLTVDKSRWQEGNVFSCSVMHEALHNHYTQKSLSLSLGKGGGGSGGGGSDVQLQESGGGLVQPGGSLRLSCAASGSIFSIDIMGWYRQAPGKQRELVATMPEGNYINYADSVKGRLTLSRDKGKNTVYLQLNSLKPEDTAVYYCYGFGVREGRGNVYWGQGTQVTVS
chain 2: GPPCPPCPAPEFLGGPSVFLFPPKPKDTLMISRTPEVTCVVVDVSQEDPEVQFNWYVDGVEVHNAKTKPREEQFNSTYRVVSVLTVLHQDWLNGKEYKCKVSNKGLPSSIEKTISKAKGQPREPQVCTLPPSQEEMTKNQVSLSCAVKGFYPSDIAVEWESNGQPENNYKTTPPVLDSDGSFFLVSRLTVDKSRWQEGNVFSCSVMHEALHNHYTQKSLSLSLGKGGGGSGGGGSEVQLLESGGGLVQPGGSLRLSCAASGFTFGNYDMAWVRQAPGKRPEWVSSIDTGGDITHYADSVKGRFTISRDNAKNTLYLQMNSLRPEDTAVYWCATDEEYALGPNEFDYYGQGTLVTVSS

This experiment deals with T1, recombinant human IgE (human, UniProt P01854-1 1-428).
T1 construct: made in-house (ALK); preloaded on immobilised FcεRIα in the displacement ELISA
T1 sequence (P01854 other isoform, or with tags, fused parts or gaps): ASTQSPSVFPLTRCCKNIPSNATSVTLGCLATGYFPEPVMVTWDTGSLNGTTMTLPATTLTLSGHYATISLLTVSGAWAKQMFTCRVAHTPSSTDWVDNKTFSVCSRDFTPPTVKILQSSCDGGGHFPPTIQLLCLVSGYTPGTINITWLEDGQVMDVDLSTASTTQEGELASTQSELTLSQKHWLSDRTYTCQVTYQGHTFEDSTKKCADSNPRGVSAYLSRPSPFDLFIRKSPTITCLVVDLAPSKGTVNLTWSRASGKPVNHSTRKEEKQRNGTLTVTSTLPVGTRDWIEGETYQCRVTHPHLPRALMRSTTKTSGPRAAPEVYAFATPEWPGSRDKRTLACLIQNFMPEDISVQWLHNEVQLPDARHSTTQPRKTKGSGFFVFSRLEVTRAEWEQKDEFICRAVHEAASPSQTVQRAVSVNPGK
The experiment in a line: IgE-FcεRIα displacement ELISA. The procedure, abridged: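 Streptavidin-coated plates carried site-specifically biotinylated recombinant human FcεRIα, loaded with recombinant human IgE at 13 ng/ml. sdAbs in a pM–μM series were added for 1 h, and displaced IgE was washed off. Percent displacement was the signal reduction versus the no-sdAb control, giving EC50 and maximal effect.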
(An ELISA detects its analyte on a solid surface through an enzyme-linked reagent.)
On to B1, for which the Max effect was 30%.
The same measure, in the same setting: for B2 the value was 25%.
As usually defined, the EC50 is the concentration at which the effect is half-maximal. Take B3: the concentration for a half-maximal effect (EC50) was 50 nM and the Max effect was 90%.
The matching figures for B4: 400 nM and 65%.
For the molecule B5, the Max effect worked out at 15%.
Still for that read-out and setting: for B6 the value was 20%.
For the molecule B7, the EC50 was found to be 30 nM and the Max effect came out at 90%.
The matching figures for B8: 580 nM and 55%.
